Assay results published in the nanobody polyreactivity screen of Harvey et al. (2022).

Test: yeast display, Sf9 membrane polyspecificity reagent, FACS + sequencing; frameworks hold sequencing errors
Procedure, shortened: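 Genes from sorted yeast were amplified by colony PCR, read by MiSeq 2 × 250 sequencing and filtered on CDR length. These cells carried a synthetic nanobody library in Saccharomyces cerevisiae BJ5465 and were sorted by FACS into low and high (top ~1%) gates on anti-HA and streptavidin fluorescence. Polyreactivity is labelled according to the gate of origin.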

| Sequence | polyreactivity (PSR sort gate) |
| --- | --- |
| QVQLVESVGGLVQAGGSLRLSCAASVYAMGWYRPAPGKERELVAAITDSGSTNYADSVKGRFTISRDNAKNTVYLQMNSLKPEDNAVYYCNADPYYATGSWARLPLYQYDYWGPGTQVTVSS | low polyreactivity |
| QVQLVESGGGLVQAGGSLRLSCGASGSIRANMGSYRQAPGKETELVAVITTSGASTSYAVSVKGRFTISRDNAKNTVYLQMNRLKPEDTAVYYCAADIYYYPHTYYRDGYYYWGQGSQVTVSS | low polyreactivity |
| QVQLVESGGGLVQAGGSLRLSCAASGSTFYFNAMGWYIQAPGKERELVADINYSGTSTYYADSVKGRFTISRDNAKNTVYLQMNSLKPEDTAVYYCAKSLPSSNTSTSYDYWGQGTQVTVSS | low polyreactivity |
| QVQLVESGGGLVQAGGSLRLSCAASGSTVVYYAMGWYRQAPGKERELVAAISSSGGTTYYADSVKGRFTISRDNAKNRVYLQMKSLKPEDTAVYYCAAPYASRGNEYWGQGTQVTVSS | high polyreactivity |
| QDQLVESGGGLVQAGGTLRLSCAATGSTFTNYAMGWYRQAPGKERELVAALTSVGSTYYADSVKGRFTISRDNAKNTVYLQTNSLKAEDTAVYYCNVVYRDQYNYWGQGTQVTVSS | low polyreactivity |
| QVQLVESGGGLVQAGGSLRLICAASGSTFLTNVMGWYRQAPGKERELVAAISRGGGRTYYADSVKGRFTISRDNAKNTVYLQMNSLKPEDTAVYYCNAVDASHAGPVGGAFRYDYWGQGTQVTVSS | high polyreactivity |
| QVQLVESGGGLVQAGGSLRLSCAASGRTFWYYAMGWYRQAPGKERELVAASTYRGGSTYYADSVKGRFTISRDNVKNTVYLQMNSLKPEDTAVYYCAAPYGEDYWRQGTQVTVSS | high polyreactivity |
| QVQLVESGGGLVQAGGSLRLSCAASGSTFVYNTMGWYRQAPGKERELVAAISKSGTNTLYADSVKGRFTISRDNAKNTVYLQMNSLKPEDTAVYYCAVRSVPRWFTELDYWGQGTQVTVSS | low polyreactivity |
| QVQLVESGVGLVQAGGSLRLSCASSGSIFTPYAMGCYRQAPGKESELVAAISRSGGSTYYADSVKGRFTISRDNAKNTVFLQMNRLKPEDTAVYYCAVVVYDIYGYESDYWGEGTQVTVSS | low polyreactivity |
| QVQLVESGGGLVQAGGSLRLSCAASGRIFLWYAMGWYRQAPGKERELVAANSSNGGSTRYADSVKGRFTISRDNAKNTVYLQMNSLKPEDTAVYYCNADVHWNRYPYGGNGYGYWGQGTQVTVSS | low polyreactivity |
| QVQLVESGGGLVQAGGSLRLSYAASGFIFRYYAMGWYRQAPGKERELVAAIKASGGRTYYADSVKGRFTISRDNERNTVYLQINSLKPEDTAVYYCAASRSYQTFDYWGQGTQVTVSS | high polyreactivity |
| QVQLVESGGGLVQAGGSLRLICAASGFTFGYYPMGWYRQAPGKERELVAAINWSGVNTNYADSVKGRFTISRDNAKNTVYLQMNSVKPEDTAVYYCAADAGYDGYGYWGQGTQVTVSS | low polyreactivity |
| QDQLVDSGGGLVQAGGSLRLSCAASGFIFWYYAMGWYRQEPGKERELVAAITSGGNTNYADSVKGRFTISRDNAKNTFYLQMNSLKPEDTAVYYCATGRASGREHDSWGHGTQVTVSS | low polyreactivity |
| QVQLVESGGGLVQAGGSLRLSCAASGNTFRDYAMGWYRQAPGKERELVAAITSSGARTYYADSVKGRFTISRDNAKNTVYLQMISLKPEDTAVYYCAADWSGYYTYDYWGQGTQVTVSS | low polyreactivity |
| QVQLVESGGGLVQAGGSLRLSCAASGSTFGEYAMGWYRQAPGKERELVAVITSDDNTYYADSVKGRFTISRDNAKNTVYLQMNSLKPEDTAVYYCAARGYVLARSQQWRREYYWGQGTQVTVSS | high polyreactivity |
| QVQLVESGGGLVQAGGSLRLSCAASGRIFGHYVMGWYRQAPGKERELVAAITWRGGSTYYADSVKGRFTISRDNAKNTVYLQMNSLKPEDTAVYYCNRALPGYGLRRDYWGQATQVTVSS | high polyreactivity |
| QVQLVESGGGLVQAGGRLRLSCAASGRIFGSYAMGWYRQAPGKERELVAAITFSGVNTYYADSVKGRFTISRDNAKNTVYLQMNRLKPEDTAVYYCAVRGPEAEYDYWGQGTQVTVSS | high polyreactivity |
| QDQLVESCGGLVPAGGSLRLSCPASGPIFTYYTMGSYRQAPGKERELVAAITVRGGRTYYADSVKGRFTISRDNEKNTVYLQMNSLKPEDTAVYYCAARGLVRSYDYWGQGTQVSVSS | high polyreactivity |
| QVQLVDSGRGLVQAGGSLRLSCAASGSIFGKYAMGWYREAPGKERELVAAISKGGGRTSYADSVKGRFTISRDNAKNTVYLQMNSLKPEDTAVYYCNVAQNYWAGLYDYWGQGTQVTVSS | high polyreactivity |
| QVQLVESGGGLVQAGGSLRLSCAASGGTFQRYAMGWYRQAPGKERELVAAISSGGRTYYADSVKGRFTISRDNAKNTVYLQMNSLKAVDTAVYYCNAVGWTRYWRIGWSAYYYWGQGTQETVSS | high polyreactivity |
| QVQLVESGGGLVQAGGSLRLSCAASGLTLRRYAMGWYRQAPGKERELVASINSGTSTKYADSVKGRFTISRDNAKNTVYLQMNSLKPEDTAVYYCAAAGYFPTAGSRRAYYYWGQGTQVTVSS | high polyreactivity |
| QDQLVESGGGLVQAGGSLRLSCAASGFTFSWNAMGWYRQSPGKERQLVAAISWSGGSTYYADSVKGRFTISRDNAKNTVYLQMNSLKPEDTAVYYCNAGSTRAASRVRYDYWGQGTQVTVSS | high polyreactivity |

| Sequence | polyreactivity (PSR sort gate) |
| --- | --- |
| QVQLVESGGGLVQAGGSLRLSCAASGRNFAPNAMGWYRQAPGKERELVAAISGSGTSTYYADSVKGRFTISRDNAKNTVYLQMNSLKPEDTAVYYCAKSARGRRGGFDYWGQGTQVTVSS | low polyreactivity |
| QVQLVESGGGLVQAGGSLRFSCAASGSIFRLYAMGWYRLAPGKDRELVATLTSGGNTYADSVKGRFTISRENAKNTVYLQMNSLKPEDTAVYYCHAGQYGYYYKGYDYWGQGTQVTVSS | high polyreactivity |
| QVQLVESGGGLVQAGGSLRLSCAASGRIFWYYVMGWYRQAPGKEREFVASISSGGSTYYADSVKGRFTISRDNAKNTVYLQMNSLKPEDTAVYYCNAYVYGQRVWYDYWGQGTQVTVSS | high polyreactivity |
| QVQLVESGGGLVQAGGSLRLSCAASGFIFAGYAMGWYRQAPGKERELVAAINRNGRSTYYADSVKGRFTISRDNAKNTVYLQMNSLKPEDTAVYYCNARSFARIGAGKGDYWGQGTQVTVSS | high polyreactivity |
| QVQLVESGGGLVQAGGSLRLSCAASGFTFWYYAMGWYRQAPGKERELVAAITSGGTTYYADSVKGRFTISRDNAKNTVYLQMNSLKPEDTAVYYCAALLSIYRSQYDYWGQGTQVTVSS | high polyreactivity |
| QVQLVESGGCLVQAGGSLRLSCAASGSIFLSNAMGWYRQAPGKERELVATIDDNGGSTYYADSVKGRFTISRDNAKNTVYLQMNSLKPEDTAVYYCAKQVRVWDLYYYLEEGYWGQGTQVTVSS | low polyreactivity |
| QVQLVESGGGLVQAGGSLRLSCAASGSTFSYNAKGWYRQAPGKERELANYADSVKGRFTISRDKAKNTVYLQMNSLKPEDTAVYYCAAVGFSYYVIRFDYWGQGTQVTVSS | low polyreactivity |
| QVQLLESGGGLVQAGGSLRLSCAASGRIFGYYAMGWYRQAPGKERELVASISWSGGSTYYADSVKGRFSISRDNAKNTVYLQMNSLKPEDTAVYYCAAKRSFLSTIGNYDYWGQGTQVTVSS | high polyreactivity |
| QFQLVESGGGLVHAGGSLRLICAASGRTFVYNAMGWYRQAPGKERDLVAAISFGGGNTYYADSVKGRFTISRDNAKNTVYLQMNCLKPEDTAVYYCAKAYIGYWGASCYYAYDYWGQGTQVTVSS | low polyreactivity |
| QVQLQESGGLVQAGGSLRLSCAASGSISGRNVMGWYRQAPGKEREFVASITDGSSTNDADSVIGRFTISRDNAKNTVYLQMNSLKPKDTAVYYCAAYAHRAKSFGYWGRGTQVTVSS | low polyreactivity |
| QVQLVESGGGLVQAGGSLRLSCAASGRTFTGYAMGWYRQAPGKEREFVAAITQRGGSTYYADSVKGRFTISRDNEKNTVYLQMNSLKAEDTAVYYCAARRRYKMDYWGQGTQVTVSS | high polyreactivity |
| QVQLVESGGGLVQAGGSLRLSCAASGRIIGKNAMGWYRQAPGEERELVAAIRYNGGRTYYADSVKGRFTISRDNAKNTVYLQMNSLKPEDTAVYYCATRTYRVDPEFGYWGQGTQVTVSS | high polyreactivity |
| QVQLVESGGGLVQAGGSLRLSCAASGSILYYALGWYRQAPGKESELVATITRGGSTYYADSVKGRFTISRDNAKNTVYLQMNSLKPEDTAVYYCAARRAVRVGYYWHDISSYDYWGQGTQVTVSS | low polyreactivity |
| QVQLVESGGGLVQAGGSLRLSCAASGRIFQSNAMGLYRQAPGKERELVAAISYSGGGSTYYADSVNGRFTISRDNAKNTVYLQMNSLKPEDTAVYYCAARRVGGCFYTWRNPAYEYWGQGTQVTVSS | high polyreactivity |
| QVHLVESGGGLVQAGGSLRLTCAASGIIFRWYAMGWYRQAPGKERELVAAISSGGGRTHYADSVKGRFTISRDNAKNTVYLQMNSLKPEDTAVYYCAAALRGQSSRFDYWGQGTQVTVSS | high polyreactivity |
| QVQLEESGGGLVQAGGSLRLSCAASGRIFSRNARGWYRPSPGKERELVAASSSGGGSTYYADSVKGRFTISRDNAKNTVYLLMNSLKPEDTAVYYCAARTRITYDWGQGTQVTVSS | low polyreactivity |
| QVQLVESGGGLVQAGGSLRLSCAASGIIFYRNAMGWYRQAPGKERELVAGITSGGSTYYADSVKGRFTISRDNAKNTVYLQMNSLIPEDTAVYYCAAYYRASQRYLQYGYWGQGTQVNVSS | high polyreactivity |
| QVQLVESGGGLVQAGGSLRLSCAASGFIFHLYGMAWYRQAPGKERELVAAISSGGRAYYADSVKGRFTISRDNAKNTVYLQMNSLKPEDTAVYDCAVYVAYLYSYYYWGQGTQVTVSS | low polyreactivity |
| QVQLVESAGGLVQAGVSLRLSCAASGIIFPYYTMGWYRQAPGKERELVARITNGGRTYYADSVKGRFTISRDNAKNTVYLQMNSLKPEDTAVYYCNAGRYYIGGYWGQGTQVTVSS | high polyreactivity |
| QFQLEESGGGLVQAGGSLRLSCAASGNIFFTNAMGRYRQAPGNERELVATITFRGTSTYYADSVKGRFTISRDNAKNTVYLQMNCLKPEDTAVYYCTARYSVFHRARVNLLGWGLYYWGQGTQVTVSS | low polyreactivity |
| QVQLVESGGGLVQAGGSLRLSCAASGSILTVYAMGWYRQAPGKERELVAAITSSGGITYYADSVKGRFTISRDNAKNTVYLQMHSLKPEDTAVYYCAAYGYGSNYRYTGYYYWGQGTQVTVSS | low polyreactivity |
